The assay addresses human melanocortin 4 receptor (MC4R) (human) (UniProt P32245). The experiment in a line: radioligand binding.

As a reminder, the Kd is the constant that tells how readily two partners part at equilibrium. Read a low Kd as higher affinity.

UniProt P32245, sequence (P32245 whole entry): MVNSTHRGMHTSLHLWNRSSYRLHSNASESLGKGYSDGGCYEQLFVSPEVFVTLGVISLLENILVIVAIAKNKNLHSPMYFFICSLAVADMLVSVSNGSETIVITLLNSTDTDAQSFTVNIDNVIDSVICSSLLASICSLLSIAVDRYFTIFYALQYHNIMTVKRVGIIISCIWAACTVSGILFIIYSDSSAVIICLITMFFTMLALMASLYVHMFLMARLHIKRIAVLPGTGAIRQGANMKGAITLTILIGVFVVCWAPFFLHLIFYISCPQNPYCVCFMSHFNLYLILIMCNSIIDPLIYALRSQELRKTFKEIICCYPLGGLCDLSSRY

In turn, [^125I]-[Nle^4, DPhe^7]-α-MSH (peptide) displayed a Kd of 0.1 nM. This lies in the sub-nanomolar range.

(Values after article doi:10.1101/2024.06.07.597973.)
